B1: mouse SorCS2 mature extracellular segment (sSorCS2, residues 117-1072) (receptor)
chain: not shown
notes: SorCS2, mouse, residues 117-1072: the mature extracellular segment, without signal peptide and pro-peptide; Expressed from pUPE107.03 with a cystatin secretion signal peptide; For the unliganded crystal the protein was deglycosylated with EndoHf and treated with trypsin (limited proteolysis); also called SorCS2 ectodomain; wt sSorCS2; source: HEK293-ES (GnTI-) or HEK293-E, secreted, purified …
B2: pro-brain-derived neurotrophic factor (proBDNF, residues 19-249, furin sites changed to AA) (ligand)
chain: APMKEVNVHGQGNLAYPGVRTHGTLESVNGPRAGSRGLTTTSLADTFEHVIEELLDEDQKVRPNEENHKDADLYTSRVMLSSQVPLEPPLLFLLEEYKNYLDAANMSMRVAAHSDPARRGELSVCDSISEWVTAADKKTAVDMSGGTVTVLEKVPVSKGQLKQYFYETKCNPMGYTKEGCRGIDKRHWNSQCRTTQSYVRALTMDSKKRIGWRFIRIDTSCVCTLTIKRGR

Legend:
[1] = target: the molecule itself; assay: crystal structure; sSorCS2 mixed with proNGF 1:1.1, 1 mM calcium chloride; proNGF degraded to NGF in the drop; 0.225 M MES/bis-tris pH 6.6; 3.9 Å
[2] = target: B1; assay: SPR; IBIS MX96; NGF, proNGF and proBDNF amine-coupled to a P-COOH SensEye sensor; wt and mutant sSorCS2 flowed as analyte; 25 mM HEPES pH 7.4, 150 mM NaCl, 0.005 % Tween 20; 25 °C; equilibrium binding, one site saturation model (two site saturation model for proBDNF); settings: both partners purified

Row | Binder | stoichiometry N [1] | Kd [2] [nM]
1 | B1 | 2 | 
2 | B2 |  | 69
